The source of these data is paper PMC11324745.

This data set concerns the target Polθ-hel (DNA polymerase theta helicase domain) (human, UniProt O75417 1-894). Nature of the data set: EMSA.

Chain of Polθ-hel (DNA polymerase theta helicase domain) (O75417 1-894): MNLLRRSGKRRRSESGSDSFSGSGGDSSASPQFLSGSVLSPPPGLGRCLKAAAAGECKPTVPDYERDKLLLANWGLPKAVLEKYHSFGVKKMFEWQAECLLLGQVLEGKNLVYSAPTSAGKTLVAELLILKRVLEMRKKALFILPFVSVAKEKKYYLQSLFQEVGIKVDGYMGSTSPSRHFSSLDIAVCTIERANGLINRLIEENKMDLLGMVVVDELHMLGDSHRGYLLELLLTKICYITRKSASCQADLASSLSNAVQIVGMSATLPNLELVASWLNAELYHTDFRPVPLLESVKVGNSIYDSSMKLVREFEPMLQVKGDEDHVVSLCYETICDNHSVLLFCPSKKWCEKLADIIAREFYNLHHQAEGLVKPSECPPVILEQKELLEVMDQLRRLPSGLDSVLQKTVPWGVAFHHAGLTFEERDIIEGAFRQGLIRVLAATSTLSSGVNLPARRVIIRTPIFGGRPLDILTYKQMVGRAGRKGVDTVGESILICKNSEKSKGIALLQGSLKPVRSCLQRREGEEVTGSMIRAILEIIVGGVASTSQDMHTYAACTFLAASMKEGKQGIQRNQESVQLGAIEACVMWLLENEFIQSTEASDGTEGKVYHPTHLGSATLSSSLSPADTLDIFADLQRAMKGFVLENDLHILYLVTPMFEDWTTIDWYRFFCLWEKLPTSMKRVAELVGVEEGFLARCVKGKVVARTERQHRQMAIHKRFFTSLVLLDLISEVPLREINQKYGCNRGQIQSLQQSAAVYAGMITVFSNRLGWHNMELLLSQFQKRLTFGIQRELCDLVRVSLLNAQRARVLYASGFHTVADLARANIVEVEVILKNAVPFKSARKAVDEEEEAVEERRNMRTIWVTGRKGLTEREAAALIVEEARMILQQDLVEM

Take TTTTTTTTTTTTTTTTTTTTTTTTTTTTT (ssDNA) [ssDNA RP316]: the binding result is “binds”.
